For this test, the target named is human MALT1_(Casp-Ig3)(338–719) (human) (UniProt Q9UDY8). In words: crystal structure; in-house X-ray structure of apo MALT1_(Casp-Ig3), data not published.

In the case of “human MALT1_(Casp-Ig3)(338–719) (from UniProt Q9UDY8 338-719) (domain or fragment)”, the stoichiometry N was determined as 2.

Values taken from paper PMC4720288.
